T1: bovine αB-crystallin (bovine (endogenous in lens), UniProt P02510 1-175)
T1 construct: αB-crystallin polypeptide of bovine lens α-crystallin; native subunit, not separated from αA-crystallin; Native polypeptide from lens; also called bovine αB-crystallin polypeptide
T1 sequence (looked up): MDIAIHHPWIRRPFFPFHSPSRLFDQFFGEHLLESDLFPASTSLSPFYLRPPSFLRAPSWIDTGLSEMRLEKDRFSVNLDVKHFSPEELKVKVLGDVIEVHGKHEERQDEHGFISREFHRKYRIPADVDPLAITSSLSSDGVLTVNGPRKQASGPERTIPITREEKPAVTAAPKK

T2: dogfish αB-crystallin (spiny dogfish (endogenous in lens), UniProt P02512 1-177)
T2 construct: αB-crystallin polypeptide of spiny dogfish lens α-crystallin; native subunit, not separated from αA-crystallin; tryptophan at positions 9, 49 and 63; Native polypeptide from lens; It accounts for >80% of dogfish α-crystallin; also called αB polypeptide; αB subunit
T2 sequence (looked up): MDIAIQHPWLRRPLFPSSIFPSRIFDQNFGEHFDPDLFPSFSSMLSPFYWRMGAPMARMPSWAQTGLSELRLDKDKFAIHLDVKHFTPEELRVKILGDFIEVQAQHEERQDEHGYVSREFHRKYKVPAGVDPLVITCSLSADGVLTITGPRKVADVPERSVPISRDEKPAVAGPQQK

B1: bovine αA-crystallin (natural protein, bovine (endogenous in lens), UniProt P02470 1-173, looked up)
chain: MDIAIQHPWFKRTLGPFYPSRLFDQFFGEGLFEYDLLPFLSSTISPYYRQSLFRTVLDSGISEVRSDRDKFVIFLDVKHFSPEDLTVKVQEDFVEIHGKHNERQDDHGYISREFHRRYRLPSNVDQSALSCSLSADGMLTFSGPKIPSGVDAGHSERAIPVSREEKPSSAPSS
notes: αA-crystallin polypeptide of bovine lens α-crystallin; native subunit, not separated from αB-crystallin; Native polypeptide from lens; also called bovine αA chain; bovine αA-crystallin subunit
B2: dogfish αA-crystallin (natural protein, spiny dogfish (endogenous in lens), UniProt P02509 1-177, looked up)
chain: MDLAIQYPWFRRSLGSFYPSRLFDQFFGEGLFDYDLFPFFSSTISPYYRQSVFRNFLDSGISEVRSEKDRFMINLNVKHFSPEELSVKIVDDYVEIHGKHAERQEDQGRVSREFHRTYHLPSNLNESAIACSLSNEGLLTLCCPKTRPGDDSNWQDRPIPVSREEKQGTQPEIRADP
notes: αA-crystallin polypeptide of spiny dogfish lens α-crystallin; native subunit, not separated from αB-crystallin; tryptophan at positions 9 and 154; Native polypeptide from lens; also called αA chain; αA-crystallin subunit

Tests used:
[1] = biological target: T1, bovine αB-crystallin; assay: SEC; gel filtration of lens extract on Sephacryl S300 in phosphate buffered saline with sodium azide, pH 7.2, room temperature; central 50% of the α-crystallin peak rechromatographed; size by comparison with known proteins; subunits of the isolated native hetero-oligomer by SDS-PAGE (only α-crystallin polypeptides present); conditions: both partners purified
[2] = biological target: T2, dogfish αB-crystallin; assay: as above; conditions: both partners purified

Binder | binding result [1] | stoichiometry N [2]
B1 | binds | 
B2 |  | ~0.2 αA:αB
